Measurements: article PMC4333373, “Specific and non-specific interactions of ParB with DNA: implications for chromosome segregation” (Nucleic Acids Research, 2015)

Biological target: the molecule itself
Assay: SEC-MALS; ParB alone, no DNA; 9 or 80 uM ParB2; Superdex 200 in 50 mM Hepes-KOH, 150 mM KCl, 2.5 mM MgCl2, 2 mM beta-mercaptoethanol; monomer and dimer

B1: Bacillus subtilis ParB (natural protein, UniProt P26497 1-282, looked up)
chain: MAKGLGKGINALFNQVDLSEETVEEIKIADLRPNPYQPRKHFDDEALAELKESVLQHGILQPLIVRKSLKGYDIVAGERRFRAAKLAGLDTVPAIVRELSEALMREIALLENLQREDLSPLEEAQAYDSLLKHLDLTQEQLAKRLGKSRPHIANHLRLLTLPENIQQLIAEGTLSMGHGRTLLGLKNKNKLEPLVQKVIAEQLNVRQLEQLIQQLNQNVPRETKKKEPVKDAVLKERESYLQNYFGTTVNIKRQKKKGKIEIEFFSNEDLDRILELLSERES
notes: ParB (Spo0J) of Bacillus subtilis 168; the parB gene was amplified from genomic DNA and cloned into pET28a(+); native (untagged) protein; intact monomer has a theoretical weight of 32.2 kDa; Untagged; also called Spo0J; ParB2 (the dimer); source: E. coli BL21 (DE3), pET28a-ParB, purified (ammonium sulphate cuts, HiTrap Heparin, Mono S; some preparations also Superdex S75)
  stoichiometry N: 2
